Data on 167 variants can be found in the RNAGym collection of RNA variant scans (doi:10.1073/pnas.2313332121).

B1: TPR t1 (parent)
chain: GACCAAUCUGCCCUCAGAGCUCGAGAACAUCUUCGGAUGCAGAGGAGGCAGGCUUCGGUGGCGCGAUAGCGCCAACGUCCUCAACCUCCAAUGCAUCCCACCACAUGAUGAUGCCUGAAGAGCCUUGGUUUUUUG

Variants of B1 are the subject of this series. Nature of the series: polymerase ribozyme fitness, log enrichment relative to wild type (log ratio); higher = more active; in vitro selection for triplet polymerase activity. An outline of the steps: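 For each subunit of a heterodimeric triplet polymerase ribozyme, a mutant library was built by PCR and transcribed, then taken through a single in vitro selection round in triplicate. Selection involved annealing to a biotinylated primer, the partner subunit and triplets, incubation frozen at −7 °C, gel excision of extended constructs, capture on streptavidin beads and RT-PCR. Genotypes were retained after Illumina sequencing of inputs and outputs only with ≥10 input reads and ≥1 read in each output. Fitness is defined as the logarithm of a genotype's enrichment relative to wild-type enrichment, using inverse-variance-weighted averages across replicates, with the logarithm taken to base 2.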
On to G77C C85U, for which the “polymerase ribozyme fitness (log ratio)” value is -1.99. As for C13A C70G G93A C104A G110C, the “polymerase ribozyme fitness (log ratio)” value was -6.34. With G51A U78A C88G A121U the figure was -1.45; with C13U U32G, -5.28; with G36A C73A, -1.1. As for G60A C80G, the “polymerase ribozyme fitness (log ratio)” value was -4.53.

For C3A A27C G45A C53A C123U, the “polymerase ribozyme fitness (log ratio)” value is -4.25. With G69U U112G the figure was 0.676. Turning to G63A C98G G117C G128A U133C, the “polymerase ribozyme fitness (log ratio)” value is -5.29.

U54C C82U A83C C115G G117A U129C: the “polymerase ribozyme fitness (log ratio)” value is -4.19.

For the variant C12G U21A C31U G60C U87C A95G G120U U133A, the “polymerase ribozyme fitness (log ratio)” value is -4.31. As for A27G U32A G36U G44A G63C C76A, the “polymerase ribozyme fitness (log ratio)” value is -7.06. Then C53A G77U C102U, with -2; and C72U U130G, with -0.892. Turning to C72U U130C, the “polymerase ribozyme fitness (log ratio)” value is -0.237. Take A24G A46U C72U U126G G128C: the “polymerase ribozyme fitness (log ratio)” value was -4.57.

As for U33A C89G A103U U112A G113U, the “polymerase ribozyme fitness (log ratio)” value was -5.8. With A46U U55A A121G the figure was 0.98; with C73G C82A U92A, -4.06. Turning to G69A U106A, the “polymerase ribozyme fitness (log ratio)” value was -2.76. Regarding G10U A26U, the “polymerase ribozyme fitness (log ratio)” value is -2.52. For U78A U96C C104U, the “polymerase ribozyme fitness (log ratio)” value was 0.046. Then A6G G39U G69U A119U, with -0.0303; and G52U C53U, with -1.04.

As for A16G A37G, the “polymerase ribozyme fitness (log ratio)” value was -1.71. Then G57A C88U U112G, with -2.79. With C64G C114G the figure was -6.51. With A6G C13U G51U C82U C94A A111G the figure was -3.66. For C49A C53U G61A C101A, the “polymerase ribozyme fitness (log ratio)” value is -0.913. Take A26G A105U: the “polymerase ribozyme fitness (log ratio)” value was -3.51. Regarding C53G C115A, the “polymerase ribozyme fitness (log ratio)” value is -0.163. For the variant C4U U9G C11A C72U A74U U106A, the “polymerase ribozyme fitness (log ratio)” value is -0.724. Turning to U7G G63A, the “polymerase ribozyme fitness (log ratio)” value is 0.0919.

C88U C97A: the “polymerase ribozyme fitness (log ratio)” value is -4.84. For A43C G44C A118U U133G, the “polymerase ribozyme fitness (log ratio)” value is -1.11. Then A90C A121C, with 0.757. With C79G A121C the figure was 0.144. With G47U C72G A90G the figure was -1.68; with C49A C73A C88U A91U, -1.03. Consider U21A G77A, for which the “polymerase ribozyme fitness (log ratio)” value was determined as 0.00839. For the variant C62G C102U, the “polymerase ribozyme fitness (log ratio)” value is -4.74. For A6C U9C C13U G17A G58A A121G, the “polymerase ribozyme fitness (log ratio)” value came out at 0.229.

On to C79U U81C, for which the “polymerase ribozyme fitness (log ratio)” value was -1.91. Then C12U C102U, with -1.83; and A50U G51U G69A C97U U109A, with -6.25; and U7G G52U, with -0.337. As for A18C U54G U87G A121U, the “polymerase ribozyme fitness (log ratio)” value is -0.603. Consider U129C U130A, for which the “polymerase ribozyme fitness (log ratio)” value was -0.859. A84U C124U: the “polymerase ribozyme fitness (log ratio)” value was 0.806. Then C49A C56U A121U, with 1.74. Then G42A A66G C70U C89A U132A, with -5.56. Consider G47A G60C, for which the “polymerase ribozyme fitness (log ratio)” value is -1.05. Then A16G G93A, with -2.61.

For C72G C114A, the “polymerase ribozyme fitness (log ratio)” value was -1.55. With U54A G63U the figure was -0.939; with C12G A16U U55C U78C A108G C123U, -3.68; with A43U U59C, -1.99. For C94U C123A, the “polymerase ribozyme fitness (log ratio)” value came out at 0.36. On to G10U G36A, for which the “polymerase ribozyme fitness (log ratio)” value was -0.638. As for C13U A26G, the “polymerase ribozyme fitness (log ratio)” value is -2.64.

Consider A37G A100U, for which the “polymerase ribozyme fitness (log ratio)” value was -1.32. With A5U C56U the figure was -0.648. With A2G C40G G45U G52A C124G the figure was -2.61; with G44C C49U, -2.11.

As for U54A C70U C73A C124U U129G, the “polymerase ribozyme fitness (log ratio)” value is -0.505. With U78C C85U U112A the figure was 0.233.

For the variant A111G C115U, the “polymerase ribozyme fitness (log ratio)” value is -2.28. In the case of C3G C62U G120C, the “polymerase ribozyme fitness (log ratio)” value is -0.751. With C56G G69U A100U U130C the figure was -0.344; with C3U C11U G39C G71A A119G, -0.917; with G117U C123A, -2.17. With C72U G93C the figure was -0.856; with G19U U55G C123A, -4.18; with C11U C114A, -1.22. Then A18C A121C, with -1.86. As for C8U C12A C40A G61U A66G, the “polymerase ribozyme fitness (log ratio)” value is -1.69.

Turning to G42C C115U, the “polymerase ribozyme fitness (log ratio)” value is -2.24. Regarding G44U C72A, the “polymerase ribozyme fitness (log ratio)” value was -1.04. As to A43G U54C A95U A121C U129A, the “polymerase ribozyme fitness (log ratio)” value was -2.96. For the variant A50C C94U C123U, the “polymerase ribozyme fitness (log ratio)” value worked out at 1.49. G71U G77U C89A: the “polymerase ribozyme fitness (log ratio)” value is -2.84. Then C40G G71U A105U, with -3.41; and C11U C89U C99U A121U U131A, with -1.82.

With C53A G61U C72U U87C G127A, the “polymerase ribozyme fitness (log ratio)” value is -1.15. With A29U G47C C85U C123U the figure was -4.09. G110U G122U: the “polymerase ribozyme fitness (log ratio)” value is -2.07. With A111C U112A C123G the figure was -0.191; with A74G A119G, 0.969. On to G128U, for which the “polymerase ribozyme fitness (log ratio)” value was -1.57. With U96C C123A the figure was 1.12; with G44C C56U, -0.735; with C34A G42C A121C, -4.79. Then C11G A95C C114G G120A, with -6.61. For C12G C53U C64U U106C, the “polymerase ribozyme fitness (log ratio)” value is -0.438.

As for A37U U132C, the “polymerase ribozyme fitness (log ratio)” value is -1.09. With A43G C72G the figure was -1.52; with G36A A41U C56G G57U, -3.93; with A50U U92G, -3.4. As for C8A C34A A37U C104U, the “polymerase ribozyme fitness (log ratio)” value is -1.95. As to U9G A83C C85U A121C U130C, the “polymerase ribozyme fitness (log ratio)” value worked out at 1.97. Then C40G A100U U133G, with -4.07; and C88U C114U, with -1.17; and U7G G10A G45U U96G G117U, with -2.43. Then A50G C53U U129C U130G, with -0.774. U54A C98U U129G U133G: the “polymerase ribozyme fitness (log ratio)” value was -3.2. Regarding C79U U96G, the “polymerase ribozyme fitness (log ratio)” value was -0.798.

Take C12G A83C: the “polymerase ribozyme fitness (log ratio)” value was -1.43. Then A75G C98U, with -0.624; and A16C G52A G60A, with -2.03; and C73G A95C C124U G128U U129C, with -1.71.

For the variant G17A C34U C98U C124A, the “polymerase ribozyme fitness (log ratio)” value was -5.98. Consider C13U U21C G36C A50G C56A, for which the “polymerase ribozyme fitness (log ratio)” value was -1.18. In the case of A2U U106A G128U U131C, the “polymerase ribozyme fitness (log ratio)” value was -1.21. With U54G C56A the figure was -1.48; with U33C A46G C88U A121U, -6.28; with G10A C76U G110C, -5.64.

With C12G C28U G71U C124U, the “polymerase ribozyme fitness (log ratio)” value was -0.951. Then U59A U92C, with -1.76; and G39A C62U G122A, with -1.13. Then C49U C123U, with 1.01. Consider A27U C89U C124A, for which the “polymerase ribozyme fitness (log ratio)” value is -1.39. As for G61U A74U G127U, the “polymerase ribozyme fitness (log ratio)” value is -4.02.

Consider G63U C72A, for which the “polymerase ribozyme fitness (log ratio)” value was -4.54. With G61A U87A the figure was 0.597; with A5G C49A C115U U132A, -0.466. With C102U G122A the figure was -2.08; with A46G C72A, 0.745.

Turning to C88A U130G, the “polymerase ribozyme fitness (log ratio)” value was -1.33. Then C40A G57A, with -3.1; and C4U G45C, with -2.12; and A6C A27C G110C U130C, with -6.2. With C13U C115U the figure was -0.41. Then U55G C56G A68G, with -5.14; and A5G C13G G51A U112C, with -1.39.

For U78C C80G, the “polymerase ribozyme fitness (log ratio)” value was -4.13. As for G48U U106A G128C, the “polymerase ribozyme fitness (log ratio)” value was -3.74. With G10A C11U C40U C97A G120A, the “polymerase ribozyme fitness (log ratio)” value was -4.4. On to C15A G52A G60A U112C U116C, for which the “polymerase ribozyme fitness (log ratio)” value was -3.35. With C3U G120U the figure was -0.507; with C15A G63U, -3.03; with U9A C11U C76U A84C, -0.377.

On to U55G C56U, for which the “polymerase ribozyme fitness (log ratio)” value was -0.601. Then C53G U112G G113C, with -5.93; and C40A C56G A105C U106G, with -4.78; and G52A G120C, with 0.847. For the variant A41U C124U, the “polymerase ribozyme fitness (log ratio)” value worked out at 0.983.

As to G19A G69U G127C, the “polymerase ribozyme fitness (log ratio)” value was -2.66. For the variant C28G C56U, the “polymerase ribozyme fitness (log ratio)” value is -2.39.

As to C85U, the “polymerase ribozyme fitness (log ratio)” value was -0.966. Then A43U G51U G71A C79A U112G, with -6.57.

With C79U C88U C97U, the “polymerase ribozyme fitness (log ratio)” value was -0.508.

For A29C G52U G63C, the “polymerase ribozyme fitness (log ratio)” value is -2.49. For the variant C13G G61A C70G C123U, the “polymerase ribozyme fitness (log ratio)” value was -5.1. Then G57U A66C, with -1.65.

Turning to G19C C22U A46C G61U C114U, the “polymerase ribozyme fitness (log ratio)” value was -4.53.

As for U78C U92G, the “polymerase ribozyme fitness (log ratio)” value is -2.87. For the variant C13U U92G, the “polymerase ribozyme fitness (log ratio)” value was -2.48. For the variant C13G C102A, the “polymerase ribozyme fitness (log ratio)” value was -3.6.

In the case of C3A C62U, the “polymerase ribozyme fitness (log ratio)” value was -1.99. Then G47U C64A, with -6.47; and U21A G47C, with -1.67; and C3U C40U C62U A75U G93C U96G, with -3.29.

As for C4G A5U C8U C101G C104U, the “polymerase ribozyme fitness (log ratio)” value was -3.99. With A6U C8G, the “polymerase ribozyme fitness (log ratio)” value was found to be 0.868. With C56U C79A the figure was -0.918. With G42U A100C U116C the figure was -4.27. Then U55C C115G G122A, with -1.84.
